Laboratory results: patent US20260232824A1, “ANTI-CD180 BINDING MOLECULES AND USES THEREOF” (Champions Oncology, Inc., priority 2023, published 2026)

Experiments:
CD19 = target: T1, CD19 (Homo sapiens, UniProt P15391); assay: CD19 expression versus in vitro activity of comparative ADC; format: cell-based; conditions: FIG. 27A
T1 construct: endogenous in cells
T1 sequence (P15391 20-556): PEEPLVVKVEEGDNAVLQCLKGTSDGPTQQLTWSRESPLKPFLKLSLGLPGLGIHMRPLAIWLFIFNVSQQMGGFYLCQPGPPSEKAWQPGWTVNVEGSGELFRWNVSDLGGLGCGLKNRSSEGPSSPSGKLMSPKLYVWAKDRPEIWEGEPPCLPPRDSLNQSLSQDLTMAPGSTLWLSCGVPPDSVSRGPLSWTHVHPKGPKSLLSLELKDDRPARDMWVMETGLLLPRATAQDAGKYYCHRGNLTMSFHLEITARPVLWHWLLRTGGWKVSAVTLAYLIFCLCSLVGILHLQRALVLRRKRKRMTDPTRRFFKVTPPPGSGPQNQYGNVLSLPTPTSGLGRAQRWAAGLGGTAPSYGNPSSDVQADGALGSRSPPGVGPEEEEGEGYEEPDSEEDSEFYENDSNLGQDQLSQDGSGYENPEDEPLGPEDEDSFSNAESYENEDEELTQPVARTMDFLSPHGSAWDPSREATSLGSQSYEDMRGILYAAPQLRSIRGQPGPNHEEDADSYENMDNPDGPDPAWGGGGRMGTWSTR

[1] = test system: panel of cancer cell lines; conditions: cited from earlier work

For “Lonca Tesirine: loncastuximab tesirine-lpyl”, the “correlation of CD19 expression with in vitro activity” value (CD19) was “CD19 expression correlated with in vitro activity”.
For COc1cc2c(cc1OCCCCCOc1cc3c(cc1OC)C(=O)N1C=C(C)C[C@H]1C=N3)N=C[C@@H]1CC(C)=CN1C2=O [SG3199], the “activity in a panel of cancer cell lines” value [1] is listed as “picomolar activity”.
